Measured values taken from PMC12271210.

Columns and labels:
KPNB1 = test: BLI; APS probe with immobilised KPNB1 (10 μg/ml, to saturation), N protein in solution (gradient 0.61–2.07 μM or 4.17–8.89 μM); 30°C, PBS + 0.2% BSA; 1:1 binding model; ForteBio Octet
[1] = target: HP-PRRSV N protein (porcine reproductive and respiratory syndrome virus (HP-PRRSV)); test: BLI; SA probe with immobilised N protein (10 μg/ml, immobilization height 2.2 nm), KPNA1 in solution (gradient 1.47–4.97 μM or 0.87–9.95 μM); 30°C, PBS + 0.2% BSA; 1:1 binding model; ForteBio Octet
[2] = target: classic PRRSV N protein (porcine reproductive and respiratory syndrome virus (classic PRRSV)); test: as above

Substance | Kd (KPNB1) [nM] | koff (KPNB1) [s⁻¹] | kon (KPNB1) [M⁻¹ s⁻¹] | Kd [1] [nM] | koff [1] [s⁻¹] | kon [1] [M⁻¹ s⁻¹] | Kd [2] [nM] | koff [2] [s⁻¹] | kon [2] [M⁻¹ s⁻¹]
HP-PRRSV N protein (natural protein) | 2130 | 0.00737 | 3450 |  |  |  |  |  | 
classic PRRSV N protein (natural protein) | 293 | 0.00179 | 6110 |  |  |  |  |  | 
KPNA1 (receptor) |  |  |  | 910 | 0.000446 | 490 | 304 | 0.000619 | 2030
